Drawing on US20110135573A1, “METALLOPROTEINASE 9 AND METALLOPROTEINASE 2 BINDING PROTEINS” (DYAX CORP., priority 2009, published 2011), this text covers Ki for 14 molecules.

This experiment addresses T1, mouse MMP-2 (Mus musculus, UniProt P33434).
T1 construct: purchased R&D Systems 924-MP-010
The experiment is described as follows: Enzyme inhibition assay (single point inhibition, IC50/Ki,app), substrate M-2350. Conditions: Table 10. In kind it is biochemical. The protocol:
343 unique sFabs from the anti-MMP-9/-2 M237-D02 affinity maturation campaign were discovered by phage display, produced in small scale (6 mL cultures in deep 24-well plates) and screened to select inhibitors with sub-nanomolar potency against the human enzymes and at least single-digit nanomolar potency toward the mouse orthologues. […] Isolates which appeared potent against both human and mouse MMP-2 were then subjected to IC50 analysis against hMMP-9. Sub-nanomolar inhibitors of hMMP-9 were further tested by IC50 analysis against mMMP-9 and h/m MMP-2, if sufficient small-scale sFab material was available. Thirteen potential h/m MMP-9/-2 sFab inhibitors were then produced in medium scale (250 mL cultures in flasks) and retested for h/m MMP-9 and h/m MMP-2 inhibition. Five potential lead candidates were reformatted as IgGs and retested in enzyme inhibition assays.
Human MMP-9 (Biomol #SE-244), mouse MMP-9 (R&D Systems #909-MM-010), human MMP-2 (Biomol #SE-237) and mouse MMP-2 (R&D Systems #924-MP-010) were tested at final concentrations of 1 nM, 0.25-0.4 nM, 2.5 nM and 0.2 nM, respectively. Target enzymes were incubated with inhibitor for two hours at 30° C. in reaction buffer (50 mM Tris-HCl pH 7.5, 150 mM NaCl, 5 mM CaCl2, 0.05% Brij-35) in a total volume of 90 μL using a white 96 well plate (Costar). Reactions contained 5 μL of small-scale sFab stock solution (average concentration of 500 nM) for single point inhibition analysis or a concentration series of sFab/IgG for IC50 Ki,app determinations. Commercially available anti-MMP-9 antibodies (Millipore mAb 13415 and R&D Systems polyclonal IgG #AB911) were tested by IC50 analyses using 100 nM and 500 nM as the highest inhibitor concentrations, respectively. An anti-MMP-2 antibody (R&D Systems polyclonal IgG #AF902) was similarly tested with 200 nM as the highest inhibitor concentration. Reactions were initiated by the addition of 10 μL of a 10× concentrated stock of substrate, Mca-Lys-Pro-Leu-Gly-Leu-Dap(Dnp)-Ala-Arg-NH2, (Bachem M-2350), at final concentration of 10 μM and monitored at 30° C. in a Molecular Devices' Gemini fluorescence plate reader. The excitation and emission wavelengths were set at 328 nm and 393 nm, respectively. Kinetic data were acquired by the increase in fluorescence, and initial rates for each condition were plotted against the total inhibitor concentration. Reactions were performed in duplicates and all data replicates were plotted in a single graph and fit to the following equation^1:
Where A=initial rate observed at each inhibitor concentration; Ao=initial rate observed in the absence of inhibitor; Ainh=initial rate observed for the enzyme inhibitor complex; Inh=concentration of inhibitor; E=total enzyme concentration (treated as a floated parameter); and Ki,app=apparent equilibrium inhibition constant.

T1 sequence (P33434 110-662): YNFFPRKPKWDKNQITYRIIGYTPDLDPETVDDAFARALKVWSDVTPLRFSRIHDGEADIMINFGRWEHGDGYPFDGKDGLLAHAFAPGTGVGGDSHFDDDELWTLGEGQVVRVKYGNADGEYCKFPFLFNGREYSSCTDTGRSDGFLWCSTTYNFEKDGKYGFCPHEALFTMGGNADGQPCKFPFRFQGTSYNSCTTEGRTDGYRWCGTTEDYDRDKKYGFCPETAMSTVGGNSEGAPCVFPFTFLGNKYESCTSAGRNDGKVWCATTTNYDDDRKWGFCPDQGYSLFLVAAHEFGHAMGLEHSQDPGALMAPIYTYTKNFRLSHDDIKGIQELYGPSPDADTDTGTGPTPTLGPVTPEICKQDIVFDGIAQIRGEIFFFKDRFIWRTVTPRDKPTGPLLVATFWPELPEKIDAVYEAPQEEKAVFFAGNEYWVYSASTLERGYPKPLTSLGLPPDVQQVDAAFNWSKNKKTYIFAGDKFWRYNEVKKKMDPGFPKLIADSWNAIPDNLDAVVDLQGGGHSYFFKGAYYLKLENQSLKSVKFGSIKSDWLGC

B1: M0299-A12: affinity matured variant of M237-D02, sFab (antibody, V domains shown)
VH: EVQLLESGGGLVQPGGSLRLSCAASGFTFSHYPMWWVRQAPGKGLEWVSYISSSGGGTFYADSVKGRFTISRDNSKNTLYLQMNSLRAEDTAVYYCAKDRAYGDYVGWNGFDYWGQGTLVTVSS
VL: QDIQMTQSPATLSLSPGERATLSCRASQSISSFLAWYQQKPGQAPRLLIYDASYRATGIPARFSGSGSGTDFTLTISSLEPEDYAVYYCQQRGNWPITFGQGTRLEIK
For B1, the Ki by setting is: (medium-scale sFab) 30 nM; (small-scale sFab) 30 nM.

B2: M0301-D12: affinity matured variant of M237-D02, sFab (antibody, V domains shown)
VH: EVQLLESGGGLVQPGGSLRLSCAASGFTFSMYDMWWVRQAPGKGLEWVSVIYSSGGYTSYADSVKGRFTISRDNSKNTLYLQMNSLRAEDTAVYYCAKDRAYGDYVGWNGFDYWGQGTLVTVSS
VL: QDIQMTQSPATLSLSPGERATLSCRASQSISSFLAWYQQKPGQAPRLLIYDASYRATGIPARFSGSGSGTDFTLTISSLEPEDYAVYYCQQRGNWPITFGQGTRLEIK
On to B2, for which the Ki by setting is: (medium-scale sFab) 25 nM; (small-scale sFab) 25 nM.

B3: M0276-F11: affinity matured variant of M237-D02, sFab (antibody, V domains shown)
VH: EVQLLESGGGLVQPGGSLRLSCAASGFTFSWYDMWWVRQAPGKGLEWVSVIYSSGGPTFYADSVKGRFTISRDNSKNTLYLQMNSLRAEDTAVYYCAKDRAYGDYVGWNGFDYWGQGTLVTVSS
VL: QDIQMTQSPATLSLSPGERATLSCRASQSISSFLAWYQQKPGQAPRLLIYDASYRATGIPARFSGSGSGTDFTLTISSLEPEDYAVYYCQQRGNWPITFGQGTRLEIK
B3: the Ki reads like this: (medium-scale sFab) 3.7 nM; (small-scale sFab) 3.7 nM.

B4: M0273-B10: affinity matured variant of M237-D02, sFab (antibody, V domains shown)
VH: EVQLLESGGGLVQPGGSLRLSCAASGFTFSKYAMIWVRQAPGKGLEWVSWIPPSGGYTSYADSVKGRFTISRDNSKNTLYLQMNSLRAEDTAVYYCAKDRAYGDYVGWNGFDYWGQGTLVTVSS
VL: QDIQMTQSPATLSLSPGERATLSCRASQSISSFLAWYQQKPGQAPRLLIYDASYRATGIPARFSGSGSGTDFTLTISSLEPEDYAVYYCQQRGNWPITFGQGTRLEIK
As for B4, the Ki (medium-scale sFab) came to 59 nM and the Ki (small-scale sFab) was 59 nM.

B5: M0275-E12: affinity matured variant of M237-D02, sFab (antibody, V domains shown)
VH: EVQLLESGGGLVQPGGSLRLSCAASGFTFSHYDMWWVRQAPGKGLEWVSVIYSSGGFTGYADSVKGRFTISRDNSKNTLYLQMNSLRAEDTAVYYCAKDRAYGDYVGWNGFDYWGQGTLVTVSS
VL: QDIQMTQSPATLSLSPGERATLSCRASQSISSFLAWYQQKPGQAPRLLIYDASYRATGIPARFSGSGSGTDFTLTISSLEPEDYAVYYCQQRGNWPITFGQGTRLEIK
For the molecule B5, the Ki by setting is: (medium-scale sFab) 15 nM; (small-scale sFab) 15 nM.

B6: M0256-D11: affinity matured variant of M237-D02, sFab (antibody, V domains shown)
VH: EVQLLESGGGLVQPGGSLRLSCAASGFTFSHYDMWWVRQAPGKGLEWVSVIYSSGGPTFYADSVKGRFTISRDNSKNTLYLQMNSLRAEDTAVYYCAKDRAYGDYVGWNGFDYWGQGTLVTVSS
VL: QDIQMTQSPATLSLSPGERATLSCRASQSISSFLAWYQQKPGQAPRLLIYDASYRATGIPARFSGSGSGTDFTLTISSLEPEDYAVYYCQQRGNWPITFGQGTRLEIK
As to B6, the Ki (medium-scale sFab) was 4.2 nM and the Ki (small-scale sFab) came to 4.2 nM.

B7: M0274-G08: affinity matured variant of M237-D02, sFab (antibody, V domains shown)
VH: EVQLLESGGGLVQPGGSLRLSCAASGFTFSVYDMWWVRQAPGKGLEWVSVIYPSGGATYYADSVKGRFTISRDNSKNTLYLQMNSLRAEDTAVYYCAKDRAYGDYVGWNGFDYWGQGTLVTVSS
VL: QDIQMTQSPATLSLSPGERATLSCRASQSISSFLAWYQQKPGQAPRLLIYDASYRATGIPARFSGSGSGTDFTLTISSLEPEDYAVYYCQQRGNWPITFGQGTRLEIK
For B7, the Ki reads like this: (medium-scale sFab) 2.7 nM; (small-scale sFab) 2.7 nM.

B8: M0272-H08: affinity matured variant of M237-D02, sFab (antibody, V domains shown)
VH: EVQLLESGGGLVQPGGSLRLSCAASGFTFSAYDMWWVRQAPGKGLEWVSVIYPSGGTTFYADSVKGRFTISRDNSKNTLYLQMNSLRAEDTAVYYCAKDRAYGDYVGWNGFDYWGQGTLVTVSS
VL: QDIQMTQSPATLSLSPGERATLSCRASQSISSFLAWYQQKPGQAPRLLIYDASYRATGIPARFSGSGSGTDFTLTISSLEPEDYAVYYCQQRGNWPITFGQGTRLEIK
On to B8, for which the Ki reads like this: (medium-scale sFab) 46 nM; (small-scale sFab) 46 nM.

B9: M0273-A11: affinity matured variant of M237-D02, sFab (antibody, V domains shown)
VH: EVQLLESGGGLVQPGGSLRLSCAASGFTFSRYDMWWVRQAPGKGLEWVSVISPSGGATFYADSVKGRFTISRDNSKNTLYLQMNSLRAEDTAVYYCAKDRAYGDYVGWNGFDYWGQGTLVTVSS
VL: QDIQMTQSPATLSLSPGERATLSCRASQSISSFLAWYQQKPGQAPRLLIYDASYRATGIPARFSGSGSGTDFTLTISSLEPEDYAVYYCQQRGNWPITFGQGTRLEIK
Consider B9, for which the Ki by setting is: (medium-scale sFab) 32 nM; (small-scale sFab) 32 nM.

B10: M0275-D03: affinity matured variant of M237-D02, sFab (antibody, V domains shown)
VH: EVQLLESGGGLVQPGGSLRLSCAASGFTFSQYDMWWVRQAPGKGLEWVSVIYPSGTTFYADSVKGRFTISRDNSKNTLYLQMNSLRAEDTAVYYCAKDRAYGDYVGWNGFDYWGQGTLVTVSS
VL: QDIQMTQSPATLSLSPGERATLSCRASQSISSFLAWYQQKPGQAPRLLIYDASYRATGIPARFSGSGSGTDFTLTISSLEPEDYAVYYCQQRGNWPITFGQGTRLEIK
On to B10, for which the Ki by setting is: (medium-scale sFab) 5.4 nM; (small-scale sFab) 5.4 nM.

B11: M0273-C10: affinity matured variant of M237-D02, sFab (antibody, V domains shown)
VH: EVQLLESGGGLVQPGGSLRLSCAASGFTFSFYPMWWVRQAPGKGLEWVSYIYPSGGATFYADSVKGRFTISRDNSKNTLYLQMNSLRAEDTAVYYCAKDRAYGDYVGWNGFDYWGQGTLVTVSS
VL: QDIQMTQSPATLSLSPGERATLSCRASQSISSFLAWYQQKPGQAPRLLIYDASYRATGIPARFSGSGSGTDFTLTISSLEPEDYAVYYCQQRGNWPITFGQGTRLEIK
Regarding B11, the Ki runs as follows: (medium-scale sFab) 18 nM; (small-scale sFab) 18 nM.

B12: M0307-F04: affinity matured variant of M237-D02, sFab (antibody, V domains shown)
VH: EVQLLESGGGLVQPGGSLRLSCAASGFTFSLYDMWWVRQAPGKGLEWVSVIYSSGGYTGYADSVKGRFTISRDNSKNTLYLQMNSLRAEDTAVYYCAKDRAYGDYVGWNGFDYWGQGTLVTVSS
VL: QDIQMTQSPATLSLSPGERATLSCRASQSISSFLAWYQQKPGQAPRLLIYDASYRATGIPARFSGSGSGTDFTLTISSLEPEDYAVYYCQQRGNWPITFGQGTRLEIK
Turning to B12, the Ki is, setting by setting: (medium-scale sFab) 2.2 nM; (small-scale sFab) 2.2 nM.

B13: M0301-A09: affinity matured variant of M237-D02, sFab (antibody, V domains shown)
VH: EVQLLESGGGLVQPGGSLRLSCAASGFTFSYYDMWWVRQAPGKGLEWVSVIYPSGGYTAYADSVKGRFTISRDNSKNTLYLQMNSLRAEDTAVYYCAKDRAYGDYVGWNGFDYWGQGTLVTVSS
VL: QDIQMTQSPATLSLSPGERATLSCRASQSISSFLAWYQQKPGQAPRLLIYDASYRATGIPARFSGSGSGTDFTLTISSLEPEDYAVYYCQQRGNWPITFGQGTRLEIK
In the case of B13, the Ki runs as follows: (medium-scale sFab) 21 nM; (small-scale sFab) 21 nM.

B14: M0273-G07: affinity matured variant of M237-D02, sFab (antibody, V domains shown)
VH: EVQLLESGGGLVQPGGSLRLSCAASGFTFSHYDMWWVRQAPGKGLEWVSVIYPSGGPTYYADSVKGRFTISRDNSKNTLYLQMNSLRAEDTAVYYCAKDRAYGDYVGWNGFDYWGQGTLVTVSS
VL: QDIQMTQSPATLSLSPGERATLSCRASQSISSFLAWYQQKPGQAPRLLIYDASYRATGIPARFSGSGSGTDFTLTISSLEPEDYAVYYCQQRGNWPITFGQGTRLEIK
In the case of B14, the Ki is, setting by setting: (medium-scale sFab) 22 nM; (small-scale sFab) 22 nM.
